Results from PMC5969528.
Read-outs that look alike come from different tables or passages of the source.

Tests used:
[1] = target: cytoplasmic dynein-1 heavy chain (mouse (endogenous in mouse brain)) (UniProt Q9JHU4); test: cryo-EM structure
[2] = target: cytoplasmic dynein-1 heavy chain (mouse (endogenous in mouse brain)) (UniProt Q9JHU4); test: cryo-EM structure; remark: listed apart in the source

## cytoplasmic dynein-1 heavy chain, Q9JHU4 1-4644
[1]
  stoichiometry N: 2
[2]
  stoichiometry N: 2
